Measurements from the supplement of paper PMC9732359.
± gives the uncertainty stated by the source.

Assay: protein stability index of a GFP-peptide fusion (yeast GPS) (PSI 1-4); higher = more stable; sorted into four equal gates, so the index is relative within each strain
In short: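 Yeast carrying a pooled library were grown to mid-log phase in leucine-free medium. Each library plasmid expresses Cherry and has a tiled 17-residue yeast protein peptide fused downstream of GFP. Cells were sorted into four equal gates by GFP/Cherry ratio, and plasmids from each gate were PCR-amplified, Illumina-sequenced and assigned to strains by barcode. Summing, across gates, the read frequency times the gate number gave each peptide's protein stability index.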

Row | Sequence | protein stability index (doa10∆) | protein stability index (pdr5∆) | protein stability index (san1∆) | protein stability index (ubr1∆)
1 | LPELWALLNFVLPKIFN [SNF2] | 2.38 ± 0.074 | 1.89 ± 0.062 | 2.07 ± 0.098 | 1.51 ± 0.038
2 | LPENIILTSLMRSKLEK [CSN9] | 2.38 ± 0.084 | 3.05 ± 0.063 | 2.78 ± 0.061 | 2.7 ± 0.048
3 | LPHITQLEGFESRKAFF [RPB2] | 2.92 ± 0.082 | 2.96 ± 0.06 | 3.08 ± 0.052 | 3.12 ± 0.041
4 | LPLATQQQVLNKLRQQA [SNF5] | 2.56 ± 0.27 | – | – | –
5 | LPLISTDVLEISKQRTF [YMR129W/POM152] | 2.17 ± 0.068 | 2.74 ± 0.06 | 2.46 ± 0.062 | 2.51 ± 0.049
6 | LPLLILENSSRSPRVVT [NUT1] | 1.76 ± 0.054 | 2 ± 0.046 | 2.258 ± 0.015 | 1.94 ± 0.039
7 | LPLTEHKSPNLSLMLES [SRB4] | 2.43 ± 0.066 | 3.18 ± 0.06 | 2.39 ± 0.11 | 2.75 ± 0.06
8 | LPMDTNLFKINSIDVPI [YMR129W/POM152] | 1.98 ± 0.048 | 1.92 ± 0.035 | 2.49 ± 0.062 | 1.95 ± 0.045
9 | LPPPPPPPGLDELETKA [PRP8] | 3.13 ± 0.056 | 3.15 ± 0.057 | 3.25 ± 0.05 | 3.17 ± 0.05
10 | LPQSEWKAPSSIVLDSE [DIS3] | 3 ± 0.062 | 3.34 ± 0.069 | 3.14 ± 0.052 | 3.15 ± 0.05
11 | LPRKEVDDVLGGGWDNV [RPC11] | 3.17 ± 0.1 | 3.63 ± 0.14 | 3.26 ± 0.066 | 3.32 ± 0.099
12 | LPSGRQDGVLLVALSNE [FAS2] | 2.4 ± 0.087 | 2.52 ± 0.097 | 2.44 ± 0.091 | 1.91 ± 0.13
13 | LPVKWETTTQFKATHIL [FAS1] | 2.52 ± 0.06 | 2.32 ± 0.057 | 2.23 ± 0.063 | 2.34 ± 0.04
14 | LQCHISGTTNFMRNGLL [UBP6] | 1.64 ± 0.1 | 1.66 ± 0.081 | 1.81 ± 0.15 | 2.31 ± 0.17
15 | LQEKISTELNNKQYELF [SWI1] | 2.51 ± 0.077 | 2.74 ± 0.072 | 2.52 ± 0.062 | 2.77 ± 0.059
16 | LQFHVATYMDNDIAGQP [RPO21] | 2.6 ± 0.07 | 2.53 ± 0.073 | 2.6 ± 0.053 | 2.66 ± 0.056
17 | LQFRPAPMYILDEVDAA [SMC2] | 1.59 ± 0.2 | 1.89 ± 0.25 | – | 1.89 ± 0.1
18 | LQGQMEKIMILLVPLAL [CSN12] | 1.84 ± 0.048 | 1.63 ± 0.04 | 1.3 ± 0.074 | 1.52 ± 0.045
19 | LQNKSFKSVLPIVLLNT [UBP6] | 1.91 ± 0.067 | 1.45 ± 0.1 | 1.87 ± 0.12 | 2.1 ± 0.072
20 | LQNLQRIIRKKIFIAVV [RRI2] | 1.21 ± 0.078 | 1.19 ± 0.073 | – | 1.16 ± 0.091
21 | LQPFWFRVNNASINTSA [ECM29] | 1.66 ± 0.1 | 1.49 ± 0.068 | 1.26 ± 0.16 | 1.49 ± 0.071
22 | LQPPKTSSRGRDHKSYS [SMC4] | 2.9 ± 0.056 | 3.21 ± 0.061 | 3 ± 0.071 | 2.86 ± 0.049
23 | LQQQQQVVTTVASQSPH [SNF6] | 1.81 ± 0.08 | 1.92 ± 0.074 | 2.03 ± 0.11 | 2.25 ± 0.049
24 | LQRHLSLGIRPCLRKYE [RRP43] | 2.61 ± 0.061 | 2.66 ± 0.063 | 2.82 ± 0.075 | 3.08 ± 0.053
25 | LQRPTATDEESVRLQRF [CSN12] | 2.75 ± 0.089 | 2.98 ± 0.12 | 2.97 ± 0.1 | 3.16 ± 0.1

Row | Sequence | protein stability index (doa10∆) | protein stability index (pdr5∆) | protein stability index (san1∆) | protein stability index (ubr1∆)
26 | LQSLNESKDLLRASFNK [SRB4] | 3.16 ± 0.13 | 3.32 ± 0.13 | 2.98 ± 0.083 | 3.48 ± 0.075
27 | LQVGDVVSTTAVIESVV [FAS1] | 2.33 ± 0.056 | 1.59 ± 0.056 | 2.04 ± 0.091 | 2.01 ± 0.049
28 | LRAAQQQWGNDFYKRDP [FAS2] | 2.44 ± 0.068 | 2.77 ± 0.051 | 2.32 ± 0.12 | 2.71 ± 0.047
29 | LRDDTLPKAWISLAVEG [COR1] | 2.55 ± 0.059 | 1.9 ± 0.08 | 1.78 ± 0.12 | 1.44 ± 0.037
30 | LREKEDKKNSSDPNNQS [YJL039C/NUP192] | 3.06 ± 0.11 | 3.09 ± 0.13 | 3.17 ± 0.099 | 3.33 ± 0.071
31 | LRFGEGASGEERLMSRP [PUP2] | 3.52 ± 0.15 | 3.36 ± 0.12 | 3.21 ± 0.1 | 3.23 ± 0.065
32 | LRHMPLASIPDIFITPT [SSN2] | 1.78 ± 0.054 | 1.69 ± 0.054 | 1.47 ± 0.068 | 1.61 ± 0.043
33 | LRKQKDSSTTSSNSQQS [ITC1] | 3.12 ± 0.059 | 3.04 ± 0.066 | 3.07 ± 0.06 | 3.19 ± 0.059
34 | LRRSGQIANDPSKKRRR [SMD1] | 2.58 ± 0.078 | 3.01 ± 0.15 | 2.73 ± 0.086 | 3.23 ± 0.1
35 | LRSDFYILANHYLSRVL [YJL039C/NUP192] | 2.81 ± 0.054 | 2.85 ± 0.07 | 2.59 ± 0.07 | 2.44 ± 0.044
36 | LRSKLFQFKLLQSNSKL [SMC4] | 1.84 ± 0.056 | 1.79 ± 0.053 | 1.59 ± 0.079 | 2.23 ± 0.037
37 | LSALNSEISSLKGKINN [SMC1] | 3.03 ± 0.09 | 3 ± 0.092 | 3.08 ± 0.064 | 3.06 ± 0.075
38 | LSDIETAVNGIDTDLFG [YGL172W/NUP49] | 3.11 ± 0.079 | 3.16 ± 0.086 | 3.2 ± 0.062 | 3.19 ± 0.055
39 | LSDLSSPVQDWNLLRSL [YML103C/NUP188] | 3.29 ± 0.14 | 3.07 ± 0.17 | 2.86 ± 0.1 | 2.65 ± 0.14
40 | LSDYEVLKFLTDLEKKH [RPC17] | 3.38 ± 0.13 | 3.23 ± 0.12 | 3.08 ± 0.086 | 3.11 ± 0.13
41 | LSDYIPGPYPNEQAARA [CYT1] | 2.1 ± 0.054 | 2.54 ± 0.05 | 2.4 ± 0.063 | 2.39 ± 0.05
42 | LSEEETLLVIRRLHKVL [SNF2] | 1.7 ± 0.086 | 2.22 ± 0.07 | 1.84 ± 0.11 | 2.21 ± 0.053
43 | LSERKAEKAEIRKRRAS [RPS6A] | 3.44 ± 0.17 | 3.06 ± 0.23 | 3.24 ± 0.13 | 3.36 ± 0.14
44 | LSGIIQDIYYLAQTLKL [RRI2] | 1.54 ± 0.081 | 1.66 ± 0.14 | 1.14 ± 0.092 | 1.04 ± 0.093
45 | LSGLSADKPFTRLTAYQ [YML031W/NDC1] | 2.95 ± 0.058 | 3.14 ± 0.06 | 2.95 ± 0.058 | 2.97 ± 0.063
46 | LSIICVGGHNVTIREQI [SIR3] | 2.22 ± 0.069 | 1.65 ± 0.042 | 1.78 ± 0.092 | 1.81 ± 0.056
47 | LSILNEIKKVTQIVAKF [SIN4] | 3.13 ± 0.16 | 2.39 ± 0.14 | 2.37 ± 0.11 | 2.87 ± 0.091
48 | LSKLEKALDRHEFFIAN [SRP68] | 2.66 ± 0.055 | 2.61 ± 0.045 | 2.55 ± 0.049 | 2.64 ± 0.047
49 | LSLYSTDLENSSLFQEK [ECM29] | 2.95 ± 0.069 | 2.81 ± 0.077 | 3 ± 0.053 | 2.77 ± 0.046
50 | LSMNIAPRLRLEDIFQQ [RET1] | 2.06 ± 0.05 | 1.92 ± 0.038 | 1.98 ± 0.057 | 2.01 ± 0.037
